Laboratory results from publication PMC4049620.

Columns and labels:
[1] = target: T9 SipA_(36-173), N-terminally His-tagged (entire extracellular region of SipA from S. pyogenes serotype T9 strain 90/306S) (Streptococcus pyogenes serotype T9 strain 90/306S); assay: SAXS; Australian Synchrotron SAXS/WAXS beamline; dilution series 1-20 mg/ml; experimental curve compared by CRYSOL with the curve calculated from the crystal octamer (chi^2 = 1.29)
[2] = target: T9 SipA_(36-173), N-terminally His-tagged (entire extracellular region of SipA from S. pyogenes serotype T9 strain 90/306S) (Streptococcus pyogenes serotype T9 strain 90/306S); assay: SEC + other: dynamic light scattering; Superdex S200 10/300 in 10 mM Tris.Cl pH 8.0, 100 mM NaCl; single peak, species of about 150 kDa after glycine treatment; data not shown
[3] = target: T9 SipA_(36-173), N-terminally His-tagged (entire extracellular region of SipA from S. pyogenes serotype T9 strain 90/306S) (Streptococcus pyogenes serotype T9 strain 90/306S); assay: crystal structure; Space group P6_(4)22, two molecules in the asymmetric unit; octamer built by crystal symmetry; crystals grown at 18°C from 1 M NaKPO4 pH 7.0, 8% MPD

Measured: stoichiometry N

T9 SipA_(36-173), N-terminally His-tagged (entire extracellular region of SipA from S. pyogenes serotype T9 strain 90/306S) (domain or fragment)
8: all assays above
